Measured values from US20210123065.

Tested on: Che9c RecT annealase (Mycobacteriophage Che9c)
Experiment: cell_activity
Conditions: oligo recombineering, about 1 ug oligo, M. smegmatis

Work on “180-mer hyg oligo carrying 60 base insertion” yielded an activity (recombinants per survivor) of 2e-06.
